Results on 7 molecules are retold here after patent US10323078B2, “Isolated peptides and fragments thereof from fibrinogen for use as drugs, particularly in skin inflammatory diseases” (Universite Paris Descartes, priority 2015, dated 2019).

Experiment [1] deals with HaCaT, NHDK, THP-1, MRC5 and HDF. The experiment in a line: H2O2 production by cells stimulated with P. acnes, overall statement for the five cell lines. The experiment is classed as cell-based, human. As to conditions: pretreatment of P. acnes strains with small peptide 2.5 to 20 μM; five cell lines and three strains tested. The procedure:
FIG. 17: Dose-dependent inhibition of H2O2 production by fibroblast pre-treated by small Fg1-generated peptides and stimulated by P. acnes. MRC5 cell were incubated for 24 h with small peptides Fg1.1 (light gray bar), Fg1.2 (horizontal line bar), Fg1.3 (hatched bar), Fg1.4 (dark gray bar), Fg1.5 (dotted bar) at concentrations ranging from 2.5 to 20 μM. Measurement of hydrogen peroxide production was realized by spectrofluorometry as described in Materials and Methods. Controls experiments were done with unstimulated MRC5 cell (white bar) and MRC5 stimulated with P. acnes (black bar). Data are means±S.D. of three separate experiments. Statistical significance is indicated by * (P<0.05), ** (P<0.01), *** (P<0.001), and **** (P<0.0001), respectively.
All cells lines (5·10^4 to 10^5 cells/well) were seeded in 96-well plates (Corning Costar, Brumath, France) and treated as previously described. After stimulation, cells were washed three times in PBS and incubated with 100 μl per wells of 5 μM DHE (for determination of O2^●−) or 5 μM H2-DCFDA (for determination of H2O2) for 30 min as described previously and fluorescence intensity was recorded every hour over a period of 5 h. Fluorescence excitation/emission maxima were for DHE: 480/610 nm and for H2-DCFDA: 507/525 nm. At the end of the experiment, the number of adherent cells was evaluated by the crystal violet assay as described below. O2^●−, and H2O2 were assayed by spectrofluorimetry on a Fusion spectrofluorimeter (PackardBell, Paris, France). Levels of ROS were calculated in each sample as follows: reactive oxygen species rate (arbitrary units/min/10^6 cells)=(fluorescence intensity [arbitrary units] at T5h—fluorescence intensity [arbitrary units] at To/300 minutes/number of adherent cells as measured by the crystal violet assay, and were expressed as arbitrary unit (A.U.).
To assess the efficacy of the small Fg1-related peptide, the production of H2O2 by several cell lines (HaCaT, NHDK, THP-1, MRC5 and HDF) stimulated by three P. acnes strains 6919, RON and PIE was measured, in presence or not with the small peptides. The amount of H2O2 produced is compared to that produced by the stimulated cells with untreated bacteria. Production baseline is obtained by measuring H2O2 on unstimulated cells. The measurement of the production of H2O2 is performed by spectrofluorimetry in the presence of specific fluorochromes directly on the monolayer cell.
Two sets of experiments have been implemented: • I) The cells are stimulated (18 h at 37° C.) by P. acnes strains previously pretreated with Fg1.1, Fg1.2, Fg1.3, Fg1.4, and Fg1.5 small peptides at the final concentrations ranging from 2.5 to 20 μM for 1 h at 37° C.; • II) The cells are pretreated first with the five small peptides at the final concentrations ranging from 2.5 to 20 μM for 24 h at 37° C. and stimulated (18 h at 37° C.) by P. acnes strains.
FIG. 17 corresponds to the results obtained with the P. acnes RON strain on the fibroblast MRCS cell line and are representative of the results obtained with all P. acnes and cells lines tested (Table 6).

The subject of experiment [2] is Pfg. The experiment in a line: Western ligand blot with biotinylated Pfg. As to conditions: biotinylated Pfg 0.1 μg/ml; for Recognition by biotinylated Pfg after electrophoretic separation of fibrinogen: 10 μg per lane, 10% SDS-PAGE; for Recognition of GST-fused recombinant Bß fibrinogen fragments by biotinylated Pfg: E. coli total protein after IPTG induction, 12.5% SDS-PAGE. The format is binding, Propionibacterium acnes. The procedure: FIG. 5: Binding of P. acnes surface proteins to fibrinogen. (A) Various quantities of human fibrinogen (hFg) and bovine fibrinogen (bFg) were immobilized onto a 96-well polystyrene plate at 4° C. for 18 h and incubated with biotinylated Pfg at 0.1 μg/ml for 2 h at 23° C. Bovine serum albumin (BSA) was used as negative control. Bound material was detected by using the HRP-streptavidin conjugate. Peroxidase activity was measured by using the ABTS substrate at 405 nm. Proteins (10 μg per lane) were separated by 10% SDS-PAGE and detected by (B) Commassie blue staining, and transferred to nitrocellulose membrane and incubated with (C) HRP-streptavidine alone, and (D) biotinylated Pfg (0.1 μg/ml). Lanes 1: molecular weight standards. Lane 2: BSA. Lane 3: hFg. Lane 4: bFg.
FIG. 8: Cloning of Bß human fibrinogen fragments and binding with Pfg. (A) Cloning and expression of recombinant human Bß fibrinogen fragments Fg1, Fg2, Fg3 and Fg4. Fibrinogen fragments were obtained by RT-PCR and expression plasmids were constructed as described in Materials and Methods. (B) GST-fused proteins were expressed in E. coli, fractionated by 12.5% SDS-PAGE, and detected by Coomassie blue staining (B), and incubated with biotinylated Pfg (0.1 μg/ml) as described in Materials and Methods (C).
To characterize the interaction between P. acnes and ligands, we used biotinylated molecules in quantitative and qualitative assays. In a first set of assays, ECM ligands (fibrinogen, collagens I, IV, VI and VIII) were used as labelled proteins with biotin. In a second set of assays, P. acnes surface proteins (total extract and purified Pfg) were biotinylated. For quantitative analysis, unlabeled protein were diluted into 50 mM carbonate-bicarbonate, pH 9.6 buffer to yield a protein concentration ranging from 0.01 to 50 μg/ml, and then immobilized to 96-well polystyrene plates at 4° C. overnight. The wells were rinsed three times with 0.2 ml of PBS containing 0.05% Tween-20 (PBS-Tween). Biotinylated proteins (0.01 to 16 μg/ml in PBS-Tween) were added to the wells and incubated at room temperature for 1 h. The wells were rinsed three times with 0.2 ml of PBS-Tween. Peroxidase conjugated to streptavidin (0.5 μg/ml in PBS-Tween) was added and incubated for 30 min at room temperature. After washing, bound peroxidase was detected using the chromogenic peroxidase substrate ABTS. For qualitative analysis, unlabelled protein (10-75 μg per lane) were separated by SDS-PAGE and then transferred to nitrocellulose membranes (0.45 μm pore size), as described previously (Towbin, 1979). Membranes were then saturated overnight at 4° C. in PBS containing 5% BSA, 0.05% Tween-20 (PBT buffer). Binding activity was detected by incubating the membranes with 20 ml of PBT containing biotinylated proteins (0.1 μg/ml) for 2 h at room temperature followed by three washes with PBT. Bound biotinylated proteins were detected by incubating the membrane with peroxidase conjugated to streptavidin (0.5 μg/ml in PBT) for 1 h at room temperature. After washing, bound peroxidase activity was detected using 3,3′-diaminobenzidine in the presence of CoCl2 and H2O2 (Harlow and Lane, 1988).
Since it was shown that Pfg is recognized by fibrinogen, this ECM ligand was used to analyze the nature of this interaction. First it was analyzed the ability of fibrinogen to be recognized by purified Pfg (FIG. 5). Human and bovine Fg (hFg, bFg) were immobilized to polysterene plate and the binding activity of biotinylated Pfg was measured. […] It has been shown that fibrinogen is a glycoprotein containing both N- and O-linked glycans (Debeire 1985; Reid Townsend 1982; L'Hôte 1996). […] In parallel, deglycosylation was assessed by visualization of a shift in the mobility after electrophoresis separation and Coomassie blue staining (FIG. 6A, lanes 3 and 5) and also by using the RCA-I plant lectin able to recognize ß-linked galactosyl residues in terminal position (FIG. 6C) (Green, 1987). […]

For “APSLRPAPPPISGGGYRARPAKAAATQKKV (fragment Fg1.5) [small peptide generated from Fg1, overlapping Fg1.2 and Fg1.3]”, the “Inhibition of H2O2 production” value in experiment [1] was “did not”. In the case of “NEEGFFSARGHRPLDKKREEAPSLRPAPPPISGGG (fragment Fg1.2) [small peptide generated from Fg1]”, the “Inhibition of H2O2 production” value in experiment [1] was “did not”. Take “YRARPAKAAATQKKVERKAPDAGGCLHADPDLGVLC (fragment Fg1.3) [small peptide generated from Fg1]”: in experiment [1], the “Inhibition of H2O2 production” value is listed as “did not”.

B1: γ subunit: γ chain of fibrinogen (protein, UniProt P02679 27-453, looked up)
Fibrinogen gamma chain: YVATRDNCCILDERFGSYCPTTCGIADFLSTYQTKVDKDLQSLEDILHQVENKTSEVKQLIKAIQLTYNPDESSKPNMIDAATLKSRKMLEEIMKYEASILTHDSSIRYLQEIYNSNNQKIVNLKEKVAQLEAQCQEPCKDTVQIHDITGKDCQDIANKGAKQSGLYFIKPLKANQQFLVYCEIDGSGNGWTVFQKRLDGSVDFKKNWIQYKEGFGHLSPTGTTEFWLGNEKIHLISTQSAIPYALRVELEDWNGRTSTADYAMFKVGPEADKYRLTYAYFAGGDAGDAFDGFDFGDDPSDKFFTSHNGMQFSTWDNDNDKFEGNCAEQDGSGWWMNKCHAGHLNGVYYQGGTYSKASTPNGYDNGIIWATWKTRWYSMKKTTMKIIPFNRLTIGEGQQHHLGGAKQVRPEHPAETEYDSLYPEDDL
Turning to B1, in experiment [2], the “Recognition by biotinylated Pfg after electrophoretic separation of fibrinogen” value is “No recognition”.

B2: PTELLIEMEDWKGDKVKAHYGGFTVQNEANKYQISVNKYRGTAGNALMDGASQLMGENRTMTIHNGMFFSTYDRDNDGWLTSDPRKQCSKEDGGGWWYNRCHAANPNGRYYWGGQYTWDMAKHGTDDGVVWMNWKGSWYSMRKMSMKIRPFFPQ (protein)
chain: PTELLIEMEDWKGDKVKAHYGGFTVQNEANKYQISVNKYRGTAGNALMDGASQLMGENRTMTIHNGMFFSTYDRDNDGWLTSDPRKQCSKEDGGGWWYNRCHAANPNGRYYWGGQYTWDMAKHGTDDGVVWMNWKGSWYSMRKMSMKIRPFFPQ
modifications: fragment Fg4
notes: recombinant fragment of Bß sub-unit of human fibrinogen
For the molecule B2, the “Recognition of GST-fused recombinant Bß fibrinogen fragments by biotinylated Pfg” value in experiment [2] is given as “only Fg1 was recognized”.

B3: Bß subunit: sub-unit Bß of human fibrinogen, SEQ ID NO: 1 (protein)
chain: MKRMVSWSFHKLKTMKHLLLLLLCVFLVKSQGVNDNEEGFFSARGHRPLDKKREEAPSLRPAPPPISGGGYRARPAKAAATQKKVERKAPDAGGCLHADPDLGVLCPTGCQLQEALLQQERPIRNSVDELNNNVEAVSQTSSSSFQYMYLLKDLWQKRQKQVKDNENVVNEYSSELEKHQLYIDETVNSNIPTNLRVLRSILENLRSKIQKLESDVSAQMEYCRTPCTVSCNIPVVSGKECEEIIRKGGETSEMYLIQPDSSVKPYRVYCDMNTENGGWTVIQNRQDGSVDFGRKWDPYKQGFGNVATNTDGKNYCGLPGEYWLGNDKISQLTRMGPTELLIEMEDWKGDKVKAHYGGFTVQNEANKYQISVNKYRGTAGNALMDGASQLMGENRTMTIHNGMFFSTYDRDNDGWLTSDPRKQCSKEDGGGWWYNRCHAANPNGRYYWGGQYTWDMAKHGTDDGVVWMNWKGSWYSMRKMSMKIRPFFPQQ
modifications: homo sapiens; sub-unit Bbeta of fibrinogen
As for B3, in experiment [2], the “Recognition by biotinylated Pfg after electrophoretic separation of fibrinogen” value is reported as “strongly recognized”.

B4: KLESDVSAQMEYCRTPCTVSCNIPVVSGKECEEIIRKGGETSEMYLIQPDSSVKPYRVYCDMNTENGGWTVIQNRQDGSVDFGRKWDPYKQGFGNVATNTDGKNYCGLPGEYWLGNDKISQLTRMGPTELLIEMEDWKGDKVKAHYGGFTVQNE (protein)
chain: KLESDVSAQMEYCRTPCTVSCNIPVVSGKECEEIIRKGGETSEMYLIQPDSSVKPYRVYCDMNTENGGWTVIQNRQDGSVDFGRKWDPYKQGFGNVATNTDGKNYCGLPGEYWLGNDKISQLTRMGPTELLIEMEDWKGDKVKAHYGGFTVQNE
modifications: fragment Fg3
notes: as for B2
For the molecule B4, in experiment [2], the “Recognition of GST-fused recombinant Bß fibrinogen fragments by biotinylated Pfg” value was “only Fg1 was recognized”.
